# From the supplement of paper PMC9112550, “Optimization of the antimicrobial peptide Bac7 by deep mutational scanning” (BMC Biology, 2022)
# Tested on: Escherichia coli TOP10
# Assay: shrunken log2 fold change of peptide-encoding DNA abundance (4.5 h post-induction vs induction); higher = less antimicrobial activity (less host growth inhibition)
# Conditions: time post-induction: 4.5 h; library: site-saturation at positions 5, 18, 19, 20
# 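Also: peptides expressed intracellularly from a pBAD plasmid library in pooled LB shake-flask culture, induced with 0.3% L-arabinose, DNA abundance read by NGS, three biological replicates, DESeq2 with apeglm shrinkage.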
row,Sequence,shrunken log2 fold change
1,RRIRWRPPRLPRPRPRPRIDPRP,-0.0323
2,RRIRKRPPRLPRPRPRPGCLPRP,0.646
3,RRIRLRPPRLPRPRPRPDAFPRP,0.0575
4,RRIRQRPPRLPRPRPRPCCMPRP,-0.42
5,RRIRWRPPRLPRPRPRPPYYPRP,-0.183
6,RRIRLRPPRLPRPRPRPMSQPRP,-0.219
7,RRIRTRPPRLPRPRPRPDQHPRP,-0.626
8,RRIRYRPPRLPRPRPRPALTPRP,-0.044
9,RRIRWRPPRLPRPRPRPDHKPRP,-0.134
10,RRIRFRPPRLPRPRPRPCSMPRP,-0.343
11,RRIRKRPPRLPRPRPRPCWCPRP,-0.0214
12,RRIRNRPPRLPRPRPRPGDWPRP,2.87
13,RRIRIRPPRLPRPRPRPDRMPRP,-0.0164
14,RRIRVRPPRLPRPRPRPCREPRP,-0.0897
15,RRIRWRPPRLPRPRPRPASAPRP,0.298
16,RRIRCRPPRLPRPRPRPYKMPRP,-1.66
17,RRIRIRPPRLPRPRPRPRSKPRP,-0.251
18,RRIRARPPRLPRPRPRPTGIPRP,0.0125
19,RRIRDRPPRLPRPRPRPERCPRP,0.426
20,RRIRLRPPRLPRPRPRPWKLPRP,-0.00968
21,RRIRGRPPRLPRPRPRPDHMPRP,0.0349
22,RRIRTRPPRLPRPRPRPMKCPRP,-0.0722
23,RRIRLRPPRLPRPRPRPQICPRP,-0.0895
24,RRIRARPPRLPRPRPRPKEHPRP,0.217
25,RRIRYRPPRLPRPRPRPFRTPRP,-0.0801

row,Sequence,shrunken log2 fold change
1,RRIRMRPPRLPRPRPRPQFNPRP,-0.661
2,RRIRARPPRLPRPRPRPGLVPRP,0.542
3,RRIRVRPPRLPRPRPRPRHTPRP,0.226
4,RRIRMRPPRLPRPRPRPNSEPRP,0.128
5,RRIRERPPRLPRPRPRPLCPPRP,-0.393
6,RRIRSRPPRLPRPRPRPKYCPRP,-0.263
7,RRIRERPPRLPRPRPRPPKEPRP,0.0608
8,RRIRRRPPRLPRPRPRPVIPPRP,0.272
9,RRIRERPPRLPRPRPRPMQLPRP,0.0995
10,RRIRYRPPRLPRPRPRPTNEPRP,-0.586
11,RRIRRRPPRLPRPRPRPKNFPRP,0.151
12,RRIRFRPPRLPRPRPRPLYNPRP,-0.644
13,RRIRVRPPRLPRPRPRPVNRPRP,-0.142
14,RRIRSRPPRLPRPRPRPINKPRP,-0.641
15,RRIRRRPPRLPRPRPRPLCWPRP,0.623
16,RRIRLRPPRLPRPRPRPRRDPRP,0.2
17,RRIRHRPPRLPRPRPRPPFHPRP,-0.119
18,RRIRSRPPRLPRPRPRPNIRPRP,0.0389
19,RRIRMRPPRLPRPRPRPDAGPRP,1.12
20,RRIRPRPPRLPRPRPRPQVCPRP,0.129
21,RRIRCRPPRLPRPRPRPNAFPRP,0.0246
22,RRIRLRPPRLPRPRPRPHMRPRP,0.125
23,RRIRLRPPRLPRPRPRPAKEPRP,-0.049
24,RRIRIRPPRLPRPRPRPRTTPRP,-0.25
25,RRIRKRPPRLPRPRPRPLSNPRP,0.436

row,Sequence,shrunken log2 fold change
1,RRIRQRPPRLPRPRPRPGSFPRP,-0.0531
2,RRIRRRPPRLPRPRPRPLRRPRP,0.654
3,RRIRCRPPRLPRPRPRPHRLPRP,-0.227
4,RRIRARPPRLPRPRPRPNLSPRP,-0.0536
5,RRIRRRPPRLPRPRPRPCSEPRP,-0.0216
6,RRIRYRPPRLPRPRPRPMLIPRP,-0.767
7,RRIRYRPPRLPRPRPRPPHLPRP,-0.52
8,RRIRDRPPRLPRPRPRPKWAPRP,0.0411
9,RRIRHRPPRLPRPRPRPKLWPRP,0.392
10,RRIRIRPPRLPRPRPRPMTKPRP,0.0447
11,RRIRCRPPRLPRPRPRPWSFPRP,-0.0435
12,RRIRPRPPRLPRPRPRPDRRPRP,0.192
13,RRIRWRPPRLPRPRPRPEMGPRP,0.271
14,RRIRDRPPRLPRPRPRPKMDPRP,0.0675
15,RRIRMRPPRLPRPRPRPVHDPRP,0.0188
16,RRIRGRPPRLPRPRPRPNCEPRP,0.376
17,RRIRVRPPRLPRPRPRPVAYPRP,-0.282
18,RRIRARPPRLPRPRPRPHPQPRP,0.45
19,RRIRRRPPRLPRPRPRPVCFPRP,0.383
20,RRIRRRPPRLPRPRPRPGNKPRP,-0.176
21,RRIRNRPPRLPRPRPRPIYEPRP,-0.232
22,RRIRARPPRLPRPRPRPLSLPRP,-0.0486
23,RRIRGRPPRLPRPRPRPKYNPRP,0.02
24,RRIRDRPPRLPRPRPRPYQWPRP,0.0508
25,RRIRFRPPRLPRPRPRPCQQPRP,0.0307
